T1: CsubMADS1 (Coccomyxa subellipsoidea C-169, UniProt I0YWG3 1-102)
T1 sequence: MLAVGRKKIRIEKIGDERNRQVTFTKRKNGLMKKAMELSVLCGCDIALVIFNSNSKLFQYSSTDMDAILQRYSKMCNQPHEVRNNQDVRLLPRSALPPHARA

B1: CAB24 CArG probe (dsDNA)
DNA 1: AATTCATCGATCGTTTACAAAAAAAAGAAATATCGATCGG
DNA 2: CCGATCGATATTTCTTTTTTTTGTAAACGATCGATGAATT
B2: CAB8 CArG probe (dsDNA)
DNA 1: AATTCATCGATCGTTTACTTTTTTTAGAAATATCGATCGG
DNA 2: CCGATCGATATTTCTAAAAAAAGTAAACGATCGATGAATT

Target: T1, CsubMADS1
Assay: EMSA

Row | Binder | binding result
1 | B1 | binds
2 | B2 | binds

— publication doi:10.64898/2025.12.15.690641
